Laboratory results: the supplement of paper PMC10567573
± gives the standard deviation.

Assay: protein stability index of a GFP-peptide fusion (GPS, HEK-293T) (PSI 1-6); higher = more stable
[1] = treatment: DMSO, c terminus: a fixed tail appended
[2] = treatment: MLN4924 1 uM, 8 h, c terminus: a fixed tail appended
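Further: 24-mer peptide tiles fused after GFP, lentivirally expressed, FACS-sorted into six equal bins by GFP/DsRed ratio, decoded by Illumina sequencing, PSI is the read-weighted mean bin number.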

| Sequence | protein stability index [1] | protein stability index [2] | protein stability index (treatment: DMSO, c terminus: native) | protein stability index (treatment: MLN4924 1 uM, 8 h, c terminus: native) |
| --- | --- | --- | --- | --- |
| TLSASSSAGGSRTPAMSSSSSSRV [TFE3] | 4.57 ± 0.46 | 4.96 ± 0.25 | – | – |
| KDMNFLKRYAGREEHWVGLKKEPG [CD69] | 3.61 ± 0.16 | 3.79 ± 0.21 | – | – |
| SLKVKFFDLERENACATKEQKNHT [PLD5] | 4 ± 0.36 | – | – | – |
| PELNNNQYNRSSNSNGGNLNSPPG [CDC14A] | 4.98 ± 0.15 | 4.84 ± 0.27 | – | – |
| GPAAAAAPSLEAPKPSGLEPGPAA [KCTD13] | 5.4 ± 0.11 | 5.39 ± 0.29 | – | – |
| RVQGGCYRFDSSSCSSEDNLSLVC [DRICH1] | 2.58 ± 0.43 | 2.62 ± 0.32 | – | – |
| PLIIAARNGHAKVVRLLLEHYRVQ [FEM1B] | 2.36 ± 0.36 | 2.39 ± 0.2 | – | – |
| LDKSTKLVETAIQSLDEPGGATFL [TRIM63] | 4.13 ± 0.29 | 4.17 ± 0.28 | – | – |
| NHIGMGVRYNAEKKKVGNYYTTPI [YJU2B] | 3.03 ± 0.22 | 3.27 ± 0.18 | – | – |
| MCLKKNHEEEVSVLRCQLGDRLNV [KRT36] | 3.24 ± 0.29 | 3.02 ± 0.35 | – | – |
| RLPTDSHFPYDLHLRSQSLTMQDE [NEUROD6] | 4.32 ± 0.14 | 4.34 ± 0.16 | – | – |
| VQVPEAWEELLTMKVEAKSHLQWQ [ZSCAN9] | 2.46 ± 0.65 | 2.54 ± 0.26 | – | – |
| MYHPRELYPSLGAGYRLGPAQPGA [TBX6] | 2.78 ± 0.25 | 2.71 ± 0.11 | – | – |
| QRLLFSGASDNSIIMWDIGGRKGR [WDFY1] | 3.16 ± 0.55 | 3.39 ± 0.46 | – | – |
| WIGYEHTSFCGQQFILERGEYPRW [CRYBA1] | 2.69 ± 0.41 | 2.21 ± 0.15 | – | – |
| RELEEYRREVERKQKGSEENLDEA [ADD1] | 5.57 ± 0.24 | 5.61 ± 0.17 | – | – |
| ISSIEAQLSELRSEMECQNQEYKM [KRT13] | 4.76 ± 0.23 | 4.69 ± 0.29 | – | – |
| RAEQDSEVGPQEINKEELEGNSMR [GMCL1] | 5.6 ± 0.26 | 5.63 ± 0.14 | – | – |
| LRQQCAQVLRNNPDALSDVGEVPY [ELOA2] | 3.88 ± 0.21 | 3.93 ± 0.16 | – | – |
| QTEPQDRSPAPMSCDKSTQTPSPP [BCL2L11] | 5.58 ± 0.14 | 5.38 ± 0.23 | – | – |
| KITDFQLHASTVKRYGLGAHRGRL [CPXM2] | 3.133 ± 0.018 | 3.22 ± 0.53 | – | – |
| LEVMEEEELANLRASQREYEELRN [RSPH3] | 5.22 ± 0.43 | 5.09 ± 0.18 | – | – |
| CQYEALVENNRRDVEAWFNTQTEE [KRT36] | 2.86 ± 0.39 | 2.83 ± 0.35 | – | – |

| Sequence | protein stability index [1] | protein stability index [2] | protein stability index (treatment: DMSO, c terminus: native) | protein stability index (treatment: MLN4924 1 uM, 8 h, c terminus: native) |
| --- | --- | --- | --- | --- |
| SFALYLAGFCMFVLSLVKKHYRLQ [CDS1] | 2.25 ± 0.36 | 2.04 ± 0.44 | – | – |
| HLSRQKIDPLLYMTEWFMCAFSRT [TBC1D10A] | 2.8 ± 0.31 | 2.67 ± 0.55 | – | – |
| ARDTVQVELIPEKKGLFLKHVEYE [SNX8] | 3.65 ± 0.39 | 3.73 ± 0.26 | – | – |
| REPVTKAEMLGSVVGNWQYFFPVI [MAGEA3] | 2.17 ± 0.18 | 2.25 ± 0.27 | – | – |
| TFVFLASLLVLIEPVAAGSGIPEV [CLCN6] | 2.91 ± 0.58 | 2.71 ± 0.6 | – | – |
| IPGKVIDEIYRVLRYVNSTRAPQR [FBXO28] | 2.2 ± 0.21 | 2.41 ± 0.28 | – | – |
| IRNRGYNLIYRSTRHLKRLALMIQ [TMEM192] | 3.02 ± 0.16 | 2.97 ± 0.38 | – | – |
| SLGYGTNVAATGISQYEDDLPPPP [APBB1IP] | 4.86 ± 0.44 | 4.87 ± 0.42 | – | – |
| SHLPTRSPSFPEAPDSGRSAPYSA [TBX6] | 4.61 ± 0.21 | 4.52 ± 0.28 | – | – |
| HNISHMSMDIARGLMVTCGTDRIV [WDFY1] | 2.26 ± 0.16 | 2.27 ± 0.15 | – | – |
| PLPEAIDPDVGVNSLQSYQLSPNK [PCDHGA10] | 5.35 ± 0.26 | 5.25 ± 0.24 | – | – |
| YVKVLHHMVKISGGPHISYPPLHE [MAGEA3] | 2.33 ± 0.61 | 2.58 ± 0.31 | – | – |
| QRKKWVDLAWMITFYVRFFLTYVP [FADS1] | 2.79 ± 0.29 | 2.83 ± 0.44 | – | – |
| DERRQLQHLKSKALRERWLLEGTP [PALM] | 3.54 ± 0.44 | 3.71 ± 0.23 | – | – |
| DFGFAILGFAYAKEDKIMLDDRKN [MIA2] | 2.05 ± 0.26 | 2.16 ± 0.48 | – | – |
| QVMVSGPNLNETSIVSGGYGGSGD [ARFIP2] | 4.24 ± 0.29 | 4.41 ± 0.41 | – | – |
| KLCKKGLAATTSMAYAKLMLTVMT [FANCE] | 2.33 ± 0.52 | 2.22 ± 0.43 | – | – |
| ILDTAGQAEFTAMRDQYMRAGEGF [RIT1] | 3.44 ± 0.29 | 3.6 ± 0.23 | – | – |
| DELALSLGYAASLEASVQDDAGTS [C2CD2L] | 5.34 ± 0.32 | 5.22 ± 0.21 | – | – |
| EQDAACGFCFFNSVAVAARHAQTI [HDAC6] | 1.99 ± 0.83 | 1.95 ± 0.21 | – | – |
| GKWMKKFPESETKECPFRVNKVCG [SERPINB5] | 3.13 ± 0.32 | 3.47 ± 0.38 | – | – |
| IPQQQGMRPPMPPHGQYGGHHQGM [ZNF207] | 3.71 ± 0.24 | 3.88 ± 0.11 | – | – |
| MSWRGRSTYYWPRPRRYVQPPEMI [GAGE1] | 2.64 ± 0.43 | 2.55 ± 0.24 | – | – |

| Sequence | protein stability index [1] | protein stability index [2] | protein stability index (treatment: DMSO, c terminus: native) | protein stability index (treatment: MLN4924 1 uM, 8 h, c terminus: native) |
| --- | --- | --- | --- | --- |
| QTPEQYYFCYKAILEFAEKEGMVS [PTPN9] | 2.12 ± 0.47 | 2.22 ± 0.35 | – | – |
| QTRMAVSLTAAETLALQGTQGQEK [ZNF232] | 5.15 ± 0.24 | 4.98 ± 0.21 | – | – |
| CITEDGRTVAVGDIVWGKIHGFPW [PWWP2B] | 2.49 ± 0.5 | 2.28 ± 0.45 | – | – |
| NIGKSHQGLKLYAVEISDHPGEHE [CPXM2] | 4.24 ± 0.13 | 4.07 ± 0.41 | – | – |
| ARYTMPSSLLAPAKHLIASMLSKN [PLK2] | 2.51 ± 0.39 | 2.91 ± 0.72 | – | – |
| YEETGFYEIEIQAEDGGAYLATAK [PCDHGA10] | 3.57 ± 0.14 | 3.72 ± 0.29 | – | – |
| VNKLKWNLAAMTPHDFIEHFLSKM [CCND1] | 2.25 ± 0.35 | 2.51 ± 0.25 | – | – |
| TKEVMNKYKVHGKEILRTLQDVFC [PPEF2] | 2.63 ± 0.12 | 2.65 ± 0.34 | – | – |
| LPVGGRLPGPTRPVLGRRAVGGRL [HAGHL] | 3.983 ± 0.03 | 4.24 ± 0.64 | – | – |
| VLKLLLLLLLFGVAGGLVACRVTE [LRRC59] | 2.77 ± 0.73 | 2.68 ± 0.81 | – | – |
| AVDAGDPAVEACENRRKVLYQRAP [TCF25] | 4.62 ± 0.21 | 5.02 ± 0.22 | – | – |
| LGDKGLSDTPYDSSASYEKENEMM [IKZF1] | 5.37 ± 0.14 | 5.26 ± 0.18 | – | – |
| VPTCSMCKVFGIHKACEVAPLQSV [TRIM63] | 2.64 ± 0.32 | 2.73 ± 0.14 | – | – |
| DTLFERATNSSWVVVFKALVTTHH [SNAP91] | 2.62 ± 0.55 | 2.71 ± 0.48 | – | – |
| QCGETMKETVNVKTVCGYYTSAGT [GMCL1] | 3.7 ± 0.22 | 3.77 ± 0.28 | – | – |
| LHALKLRSPDASPSRAPPSTQEPQ [GNAS] | 4.54 ± 0.25 | 4.65 ± 0.1 | – | – |
| SLQLVFGIELMEVDPIGHVYIFAT [MAGEA6] | 2.73 ± 0.21 | 3 ± 0.28 | – | – |
| IHTGIKPHQCSECGRAFSRKSLLV [ZNF649] | 2.56 ± 0.37 | 2.18 ± 0.4 | – | – |
| EAAAAEEGLRELQRSRRLCHEDVE [DAPK3] | 5.29 ± 0.23 | 5.4 ± 0.45 | – | – |
| IESAHRSRIKVLETSYQQREERLR [FBF1] | 3.85 ± 0.15 | 3.82 ± 0.33 | – | – |
| CVRRRYSDFEWLKNELERDSKIVV [SNX12] | 2.7 ± 0.17 | 2.62 ± 0.49 | – | – |
| VEGKGNGIKTVIVNMVDVAKALNR [EIF5] | 2.14 ± 0.21 | 2.22 ± 0.31 | – | – |
| SHLVIHNLFEGMIWFIVPISCVIC [CDS2] | 3.09 ± 0.45 | 2.81 ± 0.2 | – | – |

| Sequence | protein stability index [1] | protein stability index [2] | protein stability index (treatment: DMSO, c terminus: native) | protein stability index (treatment: MLN4924 1 uM, 8 h, c terminus: native) |
| --- | --- | --- | --- | --- |
| GLRASTSDGILRGNGTGYLPGRGR [RHOBTB2] | 4.58 ± 0.26 | 4.58 ± 0.2 | – | – |
| GRARATGGDLEEQQHAEGSPEPGT [DNAAF3] | 5.59 ± 0.3 | 5.54 ± 0.23 | – | – |
| AHDNSEELERARELKEKEATLCLE [ANKRD44] | 5.58 ± 0.21 | 5.45 ± 0.26 | – | – |
| RHLDFHVKDLIKKLLVVDRTRRLG [PRKX] | 2.57 ± 0.042 | 2.41 ± 0.36 | – | – |
| KKMSCQQFIANLDQLNDGQDFAKD [PSD2] | 4.41 ± 0.22 | 4.4 ± 0.2 | – | – |
| TRKINNSFLRDHSYATEADIISTV [PPP2R2B] | 3.32 ± 0.14 | 3.32 ± 0.12 | – | – |
| QGKLIKRQRLAKNDRGDHYHWKDL [EFHC1] | 3.36 ± 0.48 | 3.71 ± 0.31 | – | – |
| SMKASLEGNLAETENRYCVQLSQI [KRT17] | 3.22 ± 0.34 | 3.51 ± 0.39 | – | – |
| ILKQLIADVTLDPETAHPNLVLSE [TRIM39] | 2.67 ± 0.085 | 2.81 ± 0.29 | – | – |
| VGYTRGLHVWQITWAMRQRGTHAV [SPSB1] | 2.37 ± 0.52 | 2.55 ± 0.52 | – | – |
| CTSSWDKNLKIWNVHTGEFRNCGA [WDR88] | 2.17 ± 0.42 | 2.56 ± 0.31 | – | – |
| QNSRNKRAVQGPEETVTQDCLQLI [TNFSF13B] | 4.55 ± 0.057 | 4.68 ± 0.12 | – | – |
| EKVLDQVETELQRRNEETPEEGQQ [GDAP1] | 5.68 ± 0.14 | 5.64 ± 0.093 | – | – |
| PGPMDWVPRYTGVAPQDQCKLTCQ [ADAMTS4] | 3.77 ± 0.35 | 4.14 ± 0.36 | – | – |
| CGDGNTETHRAPDLVQWTRHMEAV [SOAT2] | 3.55 ± 0.044 | 3.48 ± 0.31 | – | – |
| NDIRIFLEKVLEENAQKKRFNQVL [VPS39] | 2.1 ± 0.24 | 2.27 ± 0.29 | – | – |
| EFETLYNEHKSCEEKSVKNTSIRV [CLK3] | 4.59 ± 0.36 | 4.77 ± 0.23 | – | – |
| WQVLKTHPGDPRFQCSLWHLYPL [POLD4] | – | – | 2.42 ± 0.62 | 2.14 ± 0.33 |
| TQEKKAESKEPIEEEPTGAGLNKD [SDE2] | 5.65 ± 0.12 | 5.41 ± 0.28 | – | – |
| RGFQEENKALWENNKLKLQQKLVI [CBY2] | 3 ± 0.29 | 3.15 ± 0.43 | – | – |
